Test results as given in patent US20240424125A1 (Zymeworks, published 2024).

Assays:
[1] = biological target: T1, human FRα on cells (human, UniProt P15328 25-234); assay: flow cytometry, HEK293-6e cells transiently expressing the target, 50 nM antibody
T1 construct: Transiently expressed on HEK293-6e, CHO-S or HEK293 microarray cells, or endogenous on JEG-3, HEC-1-A, IGROV-1, OVCAR-3, H2110, KB-HeLa and T-47D cells; also called human folate receptor alpha; FOLR1
Procedure: (§1) FRα, FOLR2 and FOLR4 binding: Briefly, HEK293-6e cells were transfected for ˜24 hours to transiently express human FRα (Cat. No. 13420), FOLR2 (Cat. No. 13481) and FOLR4 (Cat. No. 13483) (all from GenScript Biotech, Piscataway, NJ), 1 ug DNA per 1 million cells. Following transfection, 50,000 cells were seeded in V-bottom 96-well plates and incubated with 50 nM primary antibody for 45 min under standard culturing conditions. […] Following incubation and washing, fluorescence was detected by flow cytometry on a BD LSRFortessa™ Cell Analyzer (BD Biosciences, Franklin Lake, NJ) with 1,000 minimum events collected per well.
(§2) By flow cytometry, live singlet cell population was gated using FlowJo™ v8 software (RD Biosciences, Franklin Lake, NJ), and AF647 GeoMean and % positive binding was determined in this population for each antibody.

[2] = biological target: T2, FOLR2 on HEK293-6e cells (human, UniProt P14207 17-230); assay: as above
T2 construct: whole, on cells; also called human folate receptor beta (FOLR2)
Procedure: as §1, §2

[3] = biological target: T3, FOLR4 on HEK293-6e cells (human, UniProt A6ND01 20-228); assay: as above
T3 construct: whole, on cells; also called human folate receptor delta (FOLR4)
Procedure: as §1, §2

[4] = biological target: T2, FOLR2 on HEK293-6e cells; assay: flow cytometry on transfected HEK293-6e cells
Procedure: (§3) FRα, FOLR2 and FOLR4 binding was assessed through flow cytometry using HEK293 transfected cells. FOLR3 binding was assessed through ELISA as FOLR3 is a soluble protein. Control anti-FOLR2 (mouse anti-human FOLR2; Nordic BioSite AB, Taby, Sweden; Cat. No. AFC-4544-2), anti-FOLR3 (mouse anti-human FOLR3; LS Bio, Seattle, WA; Cat. No. LS-C125621) and anti-FOLR4 (mouse anti-His DyLight™ 650; Novus Biologicals, Littleton, CO; Cat. No. NBP2-31055C) antibodies were included in these experiments.
as §1

[5] = biological target: T3, FOLR4 on HEK293-6e cells; assay: flow cytometry on transfected HEK293-6e cells
Procedure: as §3, §1

[6] = biological target: T4, cynomolgus monkey FRα on cells (cynomolgus monkey, UniProt P15328 29-234 (human entry)); assay: apparent Kd, flow cytometry, CHO-S cells transiently expressing cynomolgus monkey FRα, 24 h at 4°C
T4 construct: Transiently expressed on CHO-S cells; also called Cyno FRα; cynomolgus FRα
Procedure: (§4) Briefly, CHO-S cells were transfected for −24 hours to transiently express human or cynomolgus monkey FRα, 1 ug DNA per 1 million cells. Following transfection, cells were seeded at 50,000 cells/well in V-bottom 96-well plates and treated with antibody for 24 hours at 4° C. to prevent internalization. […] Following incubation and washing, fluorescence was detected by flow cytometry on a BD LSRFortessa™ Cell Analyzer (BD Biosciences, Franklin Lake, NJ).

[7] = biological target: T1, human FRα on cells; assay: apparent Kd, flow cytometry on HEC-1-A cells (endogenous FRα), 24 h at 4°C
Procedure: Briefly, cells were seeded at 50,000 cells/well in V-bottom 96-well plates and treated with antibody for 24 hours at 4° C. to prevent internalization. […] Following incubation and washing, fluorescence was detected by flow cytometry on a BD LSRFortessa™ Cell Analyzer (BD Biosciences, Franklin Lake, NJ) with 1,000 minimum events collected per well. AF647/APC-A GeoMean (fluorescence signal geometric mean, proportional to anti-Human AF647 binding) in live cell population was plotted using GraphPad Prism Version 9 (GraphPad Software, San Diego, CA).

[8] = biological target: T5, recombinant His-tagged human FRα (ACROBiosystems) (human, UniProt P15328 25-233); assay: SPR (Biacore T200): hFRα amine-coupled to CM5 chip at medium antigen density, bivalent FSA injected, 1:1 Langmuir fit, mean of n=2
T5 construct: also called hFRα; hFRα antigen; not shown: His tag
Procedure: (§5) CM5 Series S sensor chip, Biacore™ amine coupling kit (NHS, EDC and 1 M ethanolamine), and 10 mM sodium acetate buffers were purchased from GE Healthcare Life Science (Mississauga, ON, Canada). PBS running buffer with 0.05% Tween20 (PBST) was purchased from Teknova Inc. (Hollister, CA). Recombinant human FRα was purchased from ACRObiosystems (Newark, DE).
(§6) Screening of the variants for binding to hFRα antigen was conducted in two steps: capture of hFRα onto surface, followed by injection of three to five concentrations of variant. The hFRα surface was prepared on a CM5 Series S sensor chip by standard amine coupling methods as described by the manufacturer (GE Healthcare Life Science, Mississauga, ON, Canada). The immobilization of the hFRα was performed using Biacore™ T200 immobilization wizard with an amine coupling method aiming for resonance units (RUs) ranging from 5 to 200 RUs. Using multi-cycle kinetics, three to five concentrations of a two-fold dilution series of samples starting at 300 nM with a blank buffer control were injected at 50 uL/min for 180s with a 600s dissociation phase, resulting in a set of sensorgrams with a buffer blank reference. The hFRα surface was regenerated to prepare for the next injection cycle by one pulse of 10 mM glycine/HCl pH 1.5 for 30s at 30 uL/min. Blank-subtracted sensorgrams were analyzed using Biacore™ T200 Evaluation Software v3.0. The blank-subtracted sensorgrams were then fit to the 1:1 Langmuir binding model.

[9] = biological target: T5, recombinant His-tagged human FRα …; assay: SPR (Biacore T200): hFRα amine-coupled to CM5 chip at medium-low antigen density, bivalent FSA injected, 1:1 Langmuir fit, mean of n=2
Procedure: as §5, §6

[10] = biological target: T1, human FRα on cells; assay: apparent Kd, flow cytometry, CHO-S cells transiently expressing human FRα (same experiment as Table 15.1, more digits)
Procedure: as §4

T2 sequence (P14207 17-230): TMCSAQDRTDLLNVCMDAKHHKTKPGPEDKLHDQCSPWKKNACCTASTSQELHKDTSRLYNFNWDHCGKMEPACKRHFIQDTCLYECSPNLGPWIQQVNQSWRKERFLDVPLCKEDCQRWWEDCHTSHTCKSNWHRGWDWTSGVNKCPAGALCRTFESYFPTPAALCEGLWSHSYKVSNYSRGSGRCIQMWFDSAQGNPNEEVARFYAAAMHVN
T3 sequence (A6ND01 20-228): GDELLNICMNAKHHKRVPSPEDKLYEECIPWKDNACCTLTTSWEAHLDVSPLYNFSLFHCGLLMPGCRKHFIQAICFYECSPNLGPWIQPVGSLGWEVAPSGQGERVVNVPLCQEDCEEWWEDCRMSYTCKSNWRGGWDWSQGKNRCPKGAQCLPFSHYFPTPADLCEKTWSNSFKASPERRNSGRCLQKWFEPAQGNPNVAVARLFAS
T1 sequence (P15328 25-234 limits assumed): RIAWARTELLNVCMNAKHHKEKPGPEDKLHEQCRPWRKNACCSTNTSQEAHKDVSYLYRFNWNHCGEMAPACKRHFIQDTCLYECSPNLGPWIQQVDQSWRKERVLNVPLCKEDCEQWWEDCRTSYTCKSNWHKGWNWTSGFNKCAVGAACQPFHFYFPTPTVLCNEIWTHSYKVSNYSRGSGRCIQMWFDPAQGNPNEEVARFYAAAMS
T5 sequence (P15328 25-233 limits assumed): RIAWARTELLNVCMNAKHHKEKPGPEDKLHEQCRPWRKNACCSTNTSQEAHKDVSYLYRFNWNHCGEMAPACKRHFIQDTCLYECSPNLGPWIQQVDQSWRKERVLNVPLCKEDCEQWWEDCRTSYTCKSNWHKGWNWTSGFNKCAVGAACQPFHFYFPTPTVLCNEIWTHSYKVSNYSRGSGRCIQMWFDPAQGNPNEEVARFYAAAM
T4 sequence (P15328 other isoform, or with tags, fused parts or gaps limits assumed): as the sequence (P15328 25-234 limits assumed) above, with I2T, A3T, W4R, R37K, A146P, H171Y counted along it

% Positive Binding, singlet population [1]: 71% | AF647/DyLight650 GeoMean, singlet population [1]: 7660 | % Positive Binding, singlet population [2]: 0% | AF647/DyLight650 GeoMean, singlet population [2]: 7 | % Positive Binding, singlet population [3]: 0% | AF647/DyLight650 GeoMean, singlet population [3]: 27 | binding result [4]: no binding (tested: 50 nM) | binding result [5]: no binding (tested: 50 nM) | Kd [6]: 0.12 nM | Kd [7]: 0.05 nM | Kd [8]: 1.37 nM | Kd [9]: 2.29 nM | Kd [10]: 0.0839 nM
B1: v23924 (antibody, human IgG1, kappa, V domains shown)
VH: QSVKESEGGLFKPTDTLTLTCTVSGFSLSSYGVSWVRQAPGNGLEWIGAVNSGGSAYYANWAKSRSTITRNTNLFTVTLKMTSLAVADTATYFCARSGSGYPMDYLAIWGPGTLVTVSS
VL: AYDMTQTPASVEVAVGGTVTIKCQASQSIGDWLAWYQQKPGQPPRLLIYEASTLASGVPSRFSGSGSGTQFTLTISGVECADAATYYCQQGYGRSNVDNIFGGGTEVVVKR
notes: Rabbit-human chimeric full-size antibody, human IgG1/kappa, HomoFc; also called variant v23924; parental chimeric anti-FRα antibody
